In IntAct's records for PubMed 16499958:

B1: Unconventional myosin-VI (Homo sapiens), Q9UM54 (parent)
chain: MEDGKPVWAPHPTDGFQMGNIVDIGPDSLTIEPLNQKGKTFLALINQVFPAEEDSKKDVEDNCSLMYLNEATLLHNIKVRYSKDRIYTYVANILIAVNPYFDIPKIYSSEAIKSYQGKSLGTRPPHVFAIADKAFRDMKVLKMSQSIIVSGESGAGKTENTKFVLRYLTESYGTGQDIDDRIVEANPLLEAFGNAKTVRNNNSSRFGKFVEIHFNEKSSVVGGFVSHYLLEKSRICVQGKEERNYHIFYRLCAGASEDIREKLHLSSPDNFRYLNRGCTRYFANKETDKQILQNRKSPEYLKAGSMKDPLLDDHGDFIRMCTAMKKIGLDDEEKLDLFRVVAGVLHLGNIDFEEAGSTSGGCNLKNKSAQSLEYCAELLGLDQDDLRVSLTTRVMLTTAGGTKGTVIKVPLKVEQANNARDALAKTVYSHLFDHVVNRVNQCFPFETSSYFIGVLDIAGFEYFEHNSFEQFCINYCNEKLQQFFNERILKEEQELYQKEGLGVNEVHYVDNQDCIDLIEAKLVGILDILDEENRLPQPSDQHFTSAVHQKHKDHFRLTIPRKSKLAVHRNIRDDEGFIIRHFAGAVCYETTQFVEKNNDALHMSLESLICESRDKFIRELFESSTNNNKDTKQKAGKLSFISVGNKFKTQLNLLLDKLRSTGASFIRCIKPNLKMTSHHFEGAQILSQLQCSGMVSVLDLMQGGYPSRASFHELYNMYKKYMPDKLARLDPRLFCKALFKALGLNENDYKFGLTKVFFRPGKFAEFDQIMKSDPDHLAELVKRVNHWLTCSRWKKVQWCSLSVIKLKNKIKYRAEACIKMQKTIRMWLCKRRHKPRIDGLVKVGTLKKRLDKFNEVVSVLKDGKPEMNKQIKNLEISIDTLMAKIKSTMMTQEQIQKEYDALVKSSEELLSALQKKKQQEEEAERLRRIQEEMEKERKRREEDEKRRRKEEEERRMKLEMEAKRKQEEEERKKREDDEKRIQAEVEAQLARQKEEESQQQAVLEQERRDRELALRIAQSEAELISDEAQADLALRRSLDSYPVSKNDGTRPKMTPEQMAKEMSEFLSRGPAVLATKAAAGTKKYDLSKWKYAELRDTINTSCDIELLAACREEFHRRLKVYHAWKSKNKKRNTETEQRAPKSVTDYDFAPFLNNSPQQNPAAQIPARQREIEMNRQQRFFRIPFIRPADQYKDPQSKKKGWWYAHFDGPWIARQMELHPDKPPILLVAGKDDMEMCELNLEETGLTRKRGAEILPRQFEEIWERCGGIQYLQNAIESRQARPTYATAMLQSLLK
B2: Rab5 GDP/GTP exchange factor (Homo sapiens), Q9UJ41 (parent)
chain: MSLKSERRGIHVDQSDLLCKKGCGYYGNPAWQGFCSKCWREEYHKARQKQIQEDWELAERLQREEEEAFASSQSSQGAQSLTFSKFEEKKTNEKTRKVTTVKKFFSASSRVGSKKEIQEAKAPSPSINRQTSIETDRVSKEFIEFLKTFHKTGQEIYKQTKLFLEGMHYKRDLSIEEQSECAQDFYHNVAERMQTRGKVPPERVEKIMDQIEKYIMTRLYKYVFCPETTDDEKKDLAIQKRIRALRWVTPQMLCVPVNEDIPEVSDMVVKAITDIIEMDSKRVPRDKLACITKCSKHIFNAIKITKNEPASADDFLPTLIYIVLKGNPPRLQSNIQYITRFCNPSRLMTGEDGYYFTNLCCAVAFIEKLDAQSLNLSQEDFDRYMSGQTSPRKQEAESWSPDACLGVKQMYKNLDLLSQLNERQERIMNEAKKLEKDLIDWTDGIAREVQDIVEKYPLEIKPPNQPLAAIDSENVENDKLPPPLQPQVYAG

Variants of: B1
Details: with ubb_human UBB

effect of a mutation on the interaction	Variant
decreasing interaction	A1013G

Variants of: B2
Details: with ubb_human UBB

effect of a mutation on the interaction	Variant
decreasing interaction	A58G

Variants of: B2
Details: with ubb_human UBB
Remark: another data set of the same source

effect of a mutation on the interaction	Variant
decreasing interaction	Y25F
